Data on five molecules can be found in patent US11406709B2, “Therapeutic and research application of PDCL3” (TRUSTEES OF BOSTON UNIVERSITY, priority 2014, dated 2022).

For one data set, the system named is PDCL3 and VEGFR-2. Nature of the data set: Chemical hypoxia, expression of PDCL3 and VEGFR-2. Type of data set: cell-based. The source says: To test whether, increased expression of VEGFR-2 in response to hypoxia is linked to induction of PDCL3 expression, we silenced expression of PDCL3 by siRNA and analyzed measured VEGFR-2 levels.
The next data set has as its system zebrafish embryos. The data set can be described thus: Zebrafish angiogenesis assay. The conditions noted are these: microinjection into embryos, 28 hpf. It is filed as in vivo, zebrafish (Danio rerio). As for the experimental part:
The vectors were linearized with Not I restriction enzyme, treated with Proteinase K (SIGMA) and extracted with phenol. Linearized plasmid DNA (1 μg/μl) in RNAse-free water was used for in vitro capped mRNA synthesis using the MMESSAGE MMACHINE® SP6 kit (AMBION) according to manufacturer instructions and RNA subsequently was used to inject into zebrafish embryos.
Fli-eGFP-transgenic adult male and female zebrafish (Danio rerio) were housed in […] light-dark cycle at a temperature of (26.5° C.) and a pH of (7.0-7.4) in a controlled multi-tank recirculating water system (Aquatic Habitats, Apopka, Fla.). Fish were fed twice daily with live brine shrimp (Brine Shrimp Direct, Ogden, Utah) and flake food (TetraMin; Tetra, Blacksburg, Va.). A glass capillary needle attached to a Femtojet injector (EPPENDORF) was used for injecting RNA (10 or 5 ng/μl in approximately 10 pl) into 1- or 2-cell-stage embryos. The embryos were grown at 28° C. for 3 days. The embryos were examined after 28 or 50 hpf using Zeiss immunofluorescence microscope. The images of fish under same setting were obtained for 10 fish per group at every experiment and analyzed for the length of the tail vessels using IMAGE-PRO® software and for the tail vessel plexus fluorescent intensity using Image J software.

A further data set has as its system PDCL3 with VEGFR-2. The data set can be described thus: Brefeldin A treatment, co-immunoprecipitation of PDCL3 with VEGFR-2. Type of data set: cell-based. As to conditions: HEK-293 cells. As for the experimental part:
FIG. 7A. Cells expressing VEGFR-2 alone or together were subjected cell surface biotinylation. Non-biotinylated and biotinylated fractions were immunoprecipitated with anti-VEGFR-2 antibody and blotted for PDCL3 using anti-c-Myc antibody. Non-biotinylated and biotinylated fractions also were blotted for VEGFR-2 and PARP as a control. FIG. 7B. HEK-293 cells were co-transfected with Myc-tagged PDCL3 and VEGFR-2 and after 48 hours they were treated with BFA or control vehicle. Cells were lysed and whole cell lysates were either blotted for VEGFR-2 or were subjected co-immunoprecipitation using anti-c-Myc antibody followed by immunoblotting with anti-VEGFR-2. FIG. 7C. HEK-293 cells were co-transfected with Myc-tagged PDCL3 and VEGFR-2 and after 48 hours cells were fixed and subjected to IF staining as described in Materials and Method section. Cells were stained with anti-PDCL3, anti-c-myc antibodies (FIGS. 7C-7D) or endoplasmic reticulum specific dye FIG. 7E.

The test system of a further data set is PAE cells. Nature of the data set: Capillary tube formation on matrigel. As to conditions: over-expression with VEGFR-2 in endothelial cells, 12 hours. It is filed as cell-based, porcine. The procedure: (§1) FIG. 6A. Cell lysates from HEK-293 cells co-expressing PDCL3 with VEGFR-2 or HA-PDCL3 with VEGFR-2 were immunoprecipitated with VEGFR-2 and immunoblotted for PDCL3 using anti-Myc antibody. Whole cell lysates was also blotted for VEGFR-2, PDCL3 and HSp70 as a loading control. Ubiquitination of VEGFR-2 was determined by immunoprecipitation with anti-VEGFR-2 followed by immunoblotting with anti-ubiquitin antibody. FIG. 6B. The graph is quantification of the ubiquitination blot of VEGFR-2. FIG. 6C. Angiogenic potential of wild-type and HA-tagged methionine mutant PDCL3 expressed in PAE cells is shown. PAE cells engineered to express VEGFR-2 alone, VEGFR-2 with wild-type PDCL3 or VEGFR-2 with HA-tagged methionine mutant PDCL3. Cells were plated on matrigel and pictures were taken after 12 hours. Image J was used to quantify tube formation. Graph is representative of three independent experiments.

The subject of data set [1] is VEGFR-2. Nature of the data set: Protein aggregation assay (PSA dye), thermo-induced aggregation. Type of data set: biochemical. As to conditions: immunoprecipitated VEGFR-2, 45° C. The procedure: Aggregation of VEGFR-2 determined using PSA kit purchased from PROFOLDIN, Inc (Hudson, Mass.) and assay was performed according to manufacturer's guideline. […] When the PSA dye binds to the aggregate, it is immobilized and slows down the rotational movement and inducing the dye to fluoresce. In brief, VEGFR-2 immunoprecipitated from HEK-293 cells and eluded from the protein-sepharose beads. The eluded VEGFR-2 protein was incubated in the 45° C. in the presence or absence of purified GST-PDCL3 for various time points. The Fluorescence intensity was measured at […].

Data set [2] has as its system VEGFR-1, VEGFR-2 and CSF-1R. Nature of the data set: Receptor expression in HEK-293 cells expressing PDCL3. It is filed as cell-based. As for the experimental part:
FIG. 1A. HEK-293 cells expressing VEGFR-2 were transfected with different concentrations of C-terminus Myc-tagged PDCL3. After 48 hours cells were lysed and whole cell lysates (WCL) were blotted for VEGFR-2, PDCL3 and Hsp70 for loading control. Quantification of premature (newly synthesized and partially glycosylated VEGFR-2 corresponding to lower molecular weight) and mature (fully glycosylated) forms of VEGFR-2 is shown. Mean results of three independent experiments are shown. *P=0.04 and […]. FIG. 1B. Human umbilical vein endothelial cells (HUVECs) were transfected with control siRNA or PDCL3-siRNA. After 48 hours cells serum-starved for overnight followed by stimulation with VEGF for 10 minutes. Cells were lysed and whole cell lysates were blotted for phospho-Y1054-VEGFR-2, total VEGFR-2, PDCL3 and Hsp70 for loading control. FIG. 1C. Thermo-induced aggregation of VEGFR-2 was measured using PSA dye as described in the materials and method section. FIG. 1D. In vitro transcription/translation of VEGFR-2 in the absence or presence of exogenous recombinant PDCL3 was performed as described in the materials and method section and schematic of the procedure is shown. FIG. 1E. In vitro translated VEGFR-2 protein in the absence or presence of exogenous recombinant PDCL3 was blotted for VEGFR-2. FIG. 1F. […]

The test system of data set [3] is VEGFR-2. The data set can be described thus: Cycloheximide-chase / VEGF-induced downregulation of VEGFR-2. It is filed as cell-based. As for the experimental part: FIG. 2A. Illustrated is the schematic of treatment of cells with cycloheximide (CHX) and VEGF. PAE cells co-expressing VEGFR-2 with empty vector (pMSCV) or PDCL3 were incubated with CHX for 90 minutes followed by stimulation with VEGF for indicated times. Whole cell lysates was blotted for VEGFR-2 and loading control protein, PLCγ1. FIG. 2B. Shown are the quantification of the half-life of mature VEGFR-2 and pre-mature VEGFR-2 based on the VEGFR-2 blot from the panel FIG. 2A. FIGS. 2C-2D. PAE cells co-expressing VEGFR-2 with empty vector (pMSCV) or PDCL3 were stimulated with VEGF for indicated times and whole cell lysates were processed as panel FIG. 2A.
PAE cells expressing VEGFR-2 alone or together with PDCL3 were serum-starved for overnight followed by incubation of cells with serum-free DMEM medium containing cycloheximide (20 μg/ml, 90 min). Cells then were stimulated with VEGF for various times to downregulate cell surface VEGFR-2. Cells were lysed and whole cell lysates was blotted for VEGFR-2 using anti-VEGFR-2 antibody. For measuring half-life of PDCL3 and HA-tagged mutant PDCL3, cells were incubated with serum-free DMEM medium containing cycloheximide (20 μg/ml) for indicated times and cells were lysed and whole cell lysates was blotted for PDCL3.

Data set [4] deals with VEGFR-2. The data set can be described thus: Co-immunoprecipitation with VEGFR-2 and VEGFR-2 ubiquitination blot. It is filed as cell-based. As to conditions: HEK-293 cells co-expressing VEGFR-2. As for the experimental part: as §1
Plasmids and siRNA: Human Phosducin like protein 3 cDNA (PDCL3 also called PHLP2A) (Clone #3344703, accession #BC001021) was purchased from OPEN BIOSYSTEMS and was cloned into expression vectors, pcDNA3.1/Myc-His(−) or retroviral pMSCV. Mutant PDCL3 was generated by removing the first methionine and adding HA tag and similarly was cloned into pcDNA3.1 and pMSCV vectors. […]

In the case of `[Cl][Co][Cl]` [cobalt chloride], the “expression of PDCL3 and VEGFR-2” value in the data set on PDCL3 and VEGFR-2 was “similarly increased expression of PDCL3 and VEGFR-2”.

“pdcl3 morpholino: PDCL3 morpholino for zebrafish, 5′CGGTGTCTGCGTTTGGGTCCTGCAT3′ (SEQ ID NO: 10), Gene Tools (all phosphorodiamidate morpholino (PMO))”: in the data set with zebrafish embryos, the “angiogenesis (intersegmental vessel formation)” value is listed as “significantly inhibited angiogenesis”.

As for `C[C@H]1CCC/C=C/[C@@H]2C[C@H](O)C[C@H]2[C@H](O)/C=C/C(=O)O1` [Brefeldin A], the “binding of PDCL3 with VEGFR-2” value with PDCL3 with VEGFR-2 is listed as “did not inhibit the binding of PDCL3 with VEGFR-2”.

B1: PDCL3: 239-amino acid human phosducin-like protein 3, SEQ ID NO: 1; expressed from cDNA in cells (protein, listed as Homo sapiens)
chain: MQDPNADTEWNDILRKKGILPPKESLKELEEEAEEEQRILQQSVVKTYEDMTLEELEDHEDEFNEEDERAIEMYRRRRLAEWKATKLKNKFGEVLEISGKDYVQEVTKAGEGLWVILHLYKQGIPLCALINQHLSGLARKFPDVKFIKAISTTCIPNYPDRNLPTIFVYLEGDIKAQFIGPLVFGGMNLTRDELEWKLSESGAIMTDLEENPKKPIEDVLLSSVRRSVLMKRDSDSEGD
modifications: Myc tag in some forms
notes: expressed from cDNA in cells
In the case of B1, the angiogenesis/capillary tube formation entry with PAE cells is recorded as “increased angiogenesis/capillary tube formation”. The “aggregation of VEGFR-2” value in the data set with VEGFR-2 [1] is listed as “significantly reduced aggregation of VEGFR-2 in a time-dependent manner”. Further, the “expression of VEGFR-1, VEGFR-2 and CSF-1R” value in data set [2] was “markedly increased expression of VEGFR-1, VEGFR-2 and CSF-1R”. Moreover, the “abundance of premature and mature forms of VEGFR-2” value in data set [2] (different concentrations of Myc-tagged PDCL3, 48 hours) is “increases the abundance of premature and mature forms of VEGFR-2 in a dose-dependent manner”. Moreover, the “half-life of newly made VEGFR-2” value in the data set on VEGFR-2 [3] (PAE cells co-expressing VEGFR-2 with PDCL3) is reported as “extends the half-life of newly made VEGFR-2”. Besides, the “VEGF-induced downregulation of mature VEGFR-2” value in the data set with VEGFR-2 [3] (PAE cells, absence of cycloheximide) is listed as “markedly slower”.

B2: acetylation resistant HA-tagged PDCL3: Mutant PDCL3 generated by removing the first methionine and adding HA tag (protein)
chain: QDPNADTEWNDILRKKGILPPKESLKELEEEAEEEQRILQQSVVKTYEDMTLEELEDHEDEFNEEDERAIEMYRRRRLAEWKATKLKNKFGEVLEISGKDYVQEVTKAGEGLWVILHLYKQGIPLCALINQHLSGLARKFPDVKFIKAISTTCIPNYPDRNLPTIFVYLEGDIKAQFIGPLVFGGMNLTRDELEWKLSESGAIMTDLEENPKKPIEDVLLSSVRRSVLMKRDSDSEGD
modifications: left off: small tags and cut ends
As to B2, in the data set on VEGFR-2 [4], the “interaction with VEGFR-2” value is on record as “interacted strongly with VEGFR-2 compared to wild-type PDCL3” and the “ubiquitination of VEGFR-2” value is recorded as “prevented VEGFR-2 from ubiquitination”. In the data set on PAE cells, the angiogenesis/capillary tube formation entry is listed as “more robust”.
